Reference: the RNAGym collection of RNA variant scans (doi:10.7554/elife.80360)

B1: Hammerhead Ribozyme (parent)
chain: ACCGGAUGUGCUUUCCGGUCUGAUGAGUCCGUGAGGACGAAACAG

Variants of: B1
Assay: self-cleavage, relative activity (ratio to wild type); higher = more cleavage; co-transcriptional

Question: For ACCGGAUGUGCUUUCCGGUCUGAUGAGUGCGUGAGGACGAAACGG [C29G A44G], which self-cleavage is on record?
Answer: 0.82

Question: Which self-cleavage does the source give for ACCGGAUGUGCUUUCCGGUCUGAUGAGUGCGUGAGGACGAAACCG [C29G A44C] here?
Answer: 0.35

Question: Which self-cleavage does the source give for ACCGGAUGUGCUUUCCGGUCUGAUGAGUGCGUGAGGACGAAACUG [C29G A44U] here?
Answer: 0.398

Question: Which self-cleavage does the source give for ACCGGAUGUGCUUUCCGGUCUGAUGAGUGCGUGACGACGAAACAG [C29G G35C] here?
Answer: 0.602

Question: Which self-cleavage does the source give for ACCGGAUGUGCUUUCCGGUCUGAUGAGUGCGUGAAGACGAAACAG [C29G G35A] here?
Answer: 0.637

Question: Which self-cleavage does the source give for ACCGGAUGUGCUUUCCGGUCUGAUGAGUGCGUGAUGACGAAACAG [C29G G35U] here?
Answer: 0.665

Question: For ACCGGAUGUGCUUUCCGGUCUGAUGAGUGGGUGAGGACGAAACAG [C29G C30G], which self-cleavage is on record?
Answer: 0.476

Question: Which self-cleavage does the source give for ACCGGAUGUGCUUUCCGGUCUGAUGAGUGAGUGAGGACGAAACAG [C29G C30A] here?
Answer: 0.432

Question: Which self-cleavage does the source give for ACCGGAUGUGCUUUCCGGUCUGAUGAGUGUGUGAGGACGAAACAG [C29G C30U] here?
Answer: 0.693

Question: For ACCGGAUGUGCUUUCCGGUCUGAUGAGUGCGUGAGGACGAAAGAG [C29G C43G], which self-cleavage is on record?
Answer: 0.275

Question: With ACCGGAUGUGCUUUCCGGUCUGAUGAGUGCGUGAGGACGAAAAAG [C29G C43A] as the variant, how does the self-cleavage read?
Answer: 0.376

Question: Which self-cleavage does the source give for ACCGGAUGUGCUUUCCGGUCUGAUGAGUGCGUGAGGACGAAAUAG [C29G C43U] here?
Answer: 0.328

Question: For ACCGGAUGUGCUUUCCGGUCUGAUGAGUUCGUGCGGACGAAACAG [C29U A34C], which self-cleavage is on record?
Answer: 0.723

Question: For ACCGGAUGUGCUUUCCGGUCUGAUGAGUUCGUGGGGACGAAACAG [C29U A34G], which self-cleavage is on record?
Answer: 0.657

Question: With ACCGGAUGUGCUUUCCGGUCUGAUGAGUUCGUGUGGACGAAACAG [C29U A34U] as the variant, how does the self-cleavage read?
Answer: 0.603

Question: Which self-cleavage does the source give for ACCGGAUGUGCUUUCCGGUCUGAUGAGUGCAUGAGGACGAAACAG [C29G G31A] here?
Answer: 1.01

Question: Which self-cleavage does the source give for ACCGGAUGUGCUUUCCGGUCUGAUGAGUGCCUGAGGACGAAACAG [C29G G31C] here?
Answer: 0.74

Question: Which self-cleavage does the source give for ACCGGAUGUGCUUUCCGGUCUGAUGAGUGCUUGAGGACGAAACAG [C29G G31U] here?
Answer: 0.777

Question: With ACCGGAUGUGCUUUCCGGUCUGAUGAGUUCGUGAGGACGAACCAG [C29U A42C] as the variant, how does the self-cleavage read?
Answer: 0.326

Question: For ACCGGAUGUGCUUUCCGGUCUGAUGAGUUCGUGAGGACGAAUCAG [C29U A42U], which self-cleavage is on record?
Answer: 0.367

Question: Which self-cleavage does the source give for ACCGGAUGUGCUUUCCGGUCUGAUGAGUUCGUGAGGACGAAGCAG [C29U A42G] here?
Answer: 0.283

Question: For ACCGGAUGUGCUUUCCGGUCUGAUGAGUGCGUGAGGACGAAACAU [C29G G45U], which self-cleavage is on record?
Answer: 0.458

Question: With ACCGGAUGUGCUUUCCGGUCUGAUGAGUGCGUGAGGACGAAACAC [C29G G45C] as the variant, how does the self-cleavage read?
Answer: 0.371

Question: Which self-cleavage does the source give for ACCGGAUGUGCUUUCCGGUCUGAUGAGUGCGUGAGGACGAAACAA [C29G G45A] here?
Answer: 0.359

Question: For ACCGGAUGUGCUUUCCGGUCUGAUGAGUGCGUCAGGACGAAACAG [C29G G33C], which self-cleavage is on record?
Answer: 0.654

Question: Which self-cleavage does the source give for ACCGGAUGUGCUUUCCGGUCUGAUGAGUGCGUAAGGACGAAACAG [C29G G33A] here?
Answer: 0.788

Question: For ACCGGAUGUGCUUUCCGGUCUGAUGAGUGCGUUAGGACGAAACAG [C29G G33U], which self-cleavage is on record?
Answer: 0.664

Question: With ACCGGAUGUGCUUUCCGGUCUGAUGAGUUCGUGAGGACGAAACUG [C29U A44U] as the variant, how does the self-cleavage read?
Answer: 0.542

Question: For ACCGGAUGUGCUUUCCGGUCUGAUGAGUUCGUGAGGACGAAACGG [C29U A44G], which self-cleavage is on record?
Answer: 1.27

Question: Which self-cleavage does the source give for ACCGGAUGUGCUUUCCGGUCUGAUGAGUUCGUGAGGACGAAACCG [C29U A44C] here?
Answer: 0.44

Question: Which self-cleavage does the source give for ACCGGAUGUGCUUUCCGGUCUGAUGAGUGCGUGAGGACGAAUCAG [C29G A42U] here?
Answer: 0.394

Question: Which self-cleavage does the source give for ACCGGAUGUGCUUUCCGGUCUGAUGAGUGCGCGAGGACGAAACAG [C29G U32C] here?
Answer: 0.708

Question: For ACCGGAUGUGCUUUCCGGUCUGAUGAGUGCGAGAGGACGAAACAG [C29G U32A], which self-cleavage is on record?
Answer: 0.847

Question: For ACCGGAUGUGCUUUCCGGUCUGAUGAGUGCGGGAGGACGAAACAG [C29G U32G], which self-cleavage is on record?
Answer: 0.553

Question: With ACCGGAUGUGCUUUCCGGUCUGAUGAGUUCGUGAGGACGAAACAG [C29U] as the variant, how does the self-cleavage read?
Answer: 0.947

Question: For ACCGGAUGUGCUUUCCGGUCUGAUGAGUGCGUGAGGAGGAAACAG [C29G C38G], which self-cleavage is on record?
Answer: 0.424

Question: Which self-cleavage does the source give for ACCGGAUGUGCUUUCCGGUCUGAUGAGUGCGUGAGGAAGAAACAG [C29G C38A] here?
Answer: 0.458

Question: For ACCGGAUGUGCUUUCCGGUCUGAUGAGUGCGUGAGGAUGAAACAG [C29G C38U], which self-cleavage is on record?
Answer: 0.703

Question: Which self-cleavage does the source give for ACCGGAUGUGCUUUCCGGUCUGAUGAGUUCGUGAGGCCGAAACAG [C29U A37C] here?
Answer: 0.93

Question: Which self-cleavage does the source give for ACCGGAUGUGCUUUCCGGUCUGAUGAGUUCGUGAGGUCGAAACAG [C29U A37U] here?
Answer: 0.371

Question: Which self-cleavage does the source give for ACCGGAUGUGCUUUCCGGUCUGAUGAGUUCGUGAGGGCGAAACAG [C29U A37G] here?
Answer: 0.751

Question: Which self-cleavage does the source give for ACCGGAUGUGCUUUCCGGUCUGAUGAGUUCGUGAGGAAGAAACAG [C29U C38A] here?
Answer: 0.485

Question: Which self-cleavage does the source give for ACCGGAUGUGCUUUCCGGUCUGAUGAGUUUGUGAGGACGAAACAG [C29U C30U] here?
Answer: 0.656

Question: For ACCGGAUGUGCUUUCCGGUCUGAUGAGUUAGUGAGGACGAAACAG [C29U C30A], which self-cleavage is on record?
Answer: 0.609

Question: For ACCGGAUGUGCUUUCCGGUCUGAUGAGUUGGUGAGGACGAAACAG [C29U C30G], which self-cleavage is on record?
Answer: 0.546

Question: With ACCGGAUGUGCUUUCCGGUCUGAUGAGUGCGUGAGAACGAAACAG [C29G G36A] as the variant, how does the self-cleavage read?
Answer: 0.66

Question: Which self-cleavage does the source give for ACCGGAUGUGCUUUCCGGUCUGAUGAGUGCGUGAGUACGAAACAG [C29G G36U] here?
Answer: 1.01

Question: With ACCGGAUGUGCUUUCCGGUCUGAUGAGUGCGUGAGCACGAAACAG [C29G G36C] as the variant, how does the self-cleavage read?
Answer: 0.799

Question: Which self-cleavage does the source give for ACCGGAUGUGCUUUCCGGUCUGAUGAGUGCGUGAGGACAAAACAG [C29G G39A] here?
Answer: 0.324

Question: Which self-cleavage does the source give for ACCGGAUGUGCUUUCCGGUCUGAUGAGUGCGUGAGGACUAAACAG [C29G G39U] here?
Answer: 0.334

Question: Which self-cleavage does the source give for ACCGGAUGUGCUUUCCGGUCUGAUGAGUGCGUGAGGACCAAACAG [C29G G39C] here?
Answer: 0.317

Question: For ACCGGAUGUGCUUUCCGGUCUGAUGAGUUCGUGAGGACGACACAG [C29U A41C], which self-cleavage is on record?
Answer: 0.319

Question: Which self-cleavage does the source give for ACCGGAUGUGCUUUCCGGUCUGAUGAGUUCGUGAGGACGAUACAG [C29U A41U] here?
Answer: 0.337

Question: Which self-cleavage does the source give for ACCGGAUGUGCUUUCCGGUCUGAUGAGUUCGUGAGGACGAGACAG [C29U A41G] here?
Answer: 0.275

Question: Which self-cleavage does the source give for ACCGGAUGUGCUUUCCGGUCUGAUGAGUUCGUGAGGACGUAACAG [C29U A40U] here?
Answer: 0.28

Question: For ACCGGAUGUGCUUUCCGGUCUGAUGAGUUCGUGAGGACGCAACAG [C29U A40C], which self-cleavage is on record?
Answer: 0.51

Question: For ACCGGAUGUGCUUUCCGGUCUGAUGAGUUCGUGAGGACGGAACAG [C29U A40G], which self-cleavage is on record?
Answer: 0.389
